Laboratory results reported in publication PMC2582951.

Biological target: cerFP505 (ceriantharian fluorescent protein with an emission maximum at 505 nm) (deep sea ceriantharian (taxon Spirularia, species not determined))
Assay: SEC; elution profile of purified recombinant cerFP505; conditions as described in refs 43, 44

Q: “cerFP505 (ceriantharian fluorescent protein with an emission maximum at 505 nm) (natural protein)” was tested. Which stoichiometry N did it give?
A: 4
